IntAct's records for PubMed 17568776

B1: RING finger and CHY zinc finger domain-containing protein 1 (Homo sapiens), Q96PM5 (parent)
chain: MAATAREDGASGQERGQRGCEHYDRGCLLKAPCCDKLYTCRLCHDNNEDHQLDRFKVKEVQCINCEKIQHAQQTCEECSTLFGEYYCDICHLFDKDKKQYHCENCGICRIGPKEDFFHCLKCNLCLAMNLQGRHKCIENVSRQNCPICLEDIHTSRVVAHVLPCGHLLHRTCYEEMLKEGYRCPLCMHSALDMTRYWRQLDDEVAQTPMPSEYQNMTVDILCNDCNGRSTVQFHILGMKCKICESYNTAQAGGRRISLDQQ

Variants of: B1
Details: with kcc2a_human CAMK2A

effect of a mutation on the interaction	Variant
disrupting interaction	S155A
disrupting interaction	T154A
